Laboratory results taken from patent US9549967B2, “Regulation of sodium channels by PLUNC proteins” (The University of North Carolina at Chapel Hill, priority 2009, dated 2017).

Biological target: T1, ENaC (Homo sapiens, UniProt P37088+P51168+P51170)
T1 construct: endogenous in cells; host or cells: primary human bronchial epithelial cultures
T1 sequence (P37088 1-669): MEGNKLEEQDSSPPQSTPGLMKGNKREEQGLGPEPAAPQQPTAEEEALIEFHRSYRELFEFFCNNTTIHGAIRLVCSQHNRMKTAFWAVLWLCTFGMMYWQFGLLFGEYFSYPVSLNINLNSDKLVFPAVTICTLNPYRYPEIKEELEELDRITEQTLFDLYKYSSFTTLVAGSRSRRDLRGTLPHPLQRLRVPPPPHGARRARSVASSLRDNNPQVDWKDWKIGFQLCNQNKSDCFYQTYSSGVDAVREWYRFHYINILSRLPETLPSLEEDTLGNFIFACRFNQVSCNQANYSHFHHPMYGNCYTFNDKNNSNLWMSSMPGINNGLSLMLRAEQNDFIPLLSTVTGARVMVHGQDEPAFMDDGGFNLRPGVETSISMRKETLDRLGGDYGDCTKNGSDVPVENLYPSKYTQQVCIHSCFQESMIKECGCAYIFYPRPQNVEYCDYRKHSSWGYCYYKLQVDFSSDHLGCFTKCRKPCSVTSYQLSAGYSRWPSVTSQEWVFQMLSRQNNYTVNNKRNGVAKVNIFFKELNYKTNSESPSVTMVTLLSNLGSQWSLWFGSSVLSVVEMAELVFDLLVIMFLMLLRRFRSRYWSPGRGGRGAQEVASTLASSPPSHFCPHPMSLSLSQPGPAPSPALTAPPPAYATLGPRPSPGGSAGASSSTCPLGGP
T1 sequence (P51168 1-640): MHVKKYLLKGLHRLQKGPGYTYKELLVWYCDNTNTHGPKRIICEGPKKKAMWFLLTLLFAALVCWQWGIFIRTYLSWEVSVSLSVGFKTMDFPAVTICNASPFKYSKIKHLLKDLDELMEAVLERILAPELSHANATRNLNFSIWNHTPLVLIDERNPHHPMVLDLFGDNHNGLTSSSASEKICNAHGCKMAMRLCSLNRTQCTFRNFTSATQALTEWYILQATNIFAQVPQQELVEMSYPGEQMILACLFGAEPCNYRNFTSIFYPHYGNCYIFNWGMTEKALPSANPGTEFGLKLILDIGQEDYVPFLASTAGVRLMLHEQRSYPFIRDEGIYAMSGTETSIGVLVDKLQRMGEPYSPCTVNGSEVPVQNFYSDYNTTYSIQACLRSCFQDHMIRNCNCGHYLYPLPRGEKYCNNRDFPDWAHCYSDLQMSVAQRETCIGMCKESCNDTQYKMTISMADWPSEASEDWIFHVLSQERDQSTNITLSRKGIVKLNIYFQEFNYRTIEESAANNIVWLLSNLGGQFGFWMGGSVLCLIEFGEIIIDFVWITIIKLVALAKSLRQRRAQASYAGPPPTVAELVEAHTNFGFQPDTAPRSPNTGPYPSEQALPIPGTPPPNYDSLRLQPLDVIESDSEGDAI
T1 sequence (P51170 1-649): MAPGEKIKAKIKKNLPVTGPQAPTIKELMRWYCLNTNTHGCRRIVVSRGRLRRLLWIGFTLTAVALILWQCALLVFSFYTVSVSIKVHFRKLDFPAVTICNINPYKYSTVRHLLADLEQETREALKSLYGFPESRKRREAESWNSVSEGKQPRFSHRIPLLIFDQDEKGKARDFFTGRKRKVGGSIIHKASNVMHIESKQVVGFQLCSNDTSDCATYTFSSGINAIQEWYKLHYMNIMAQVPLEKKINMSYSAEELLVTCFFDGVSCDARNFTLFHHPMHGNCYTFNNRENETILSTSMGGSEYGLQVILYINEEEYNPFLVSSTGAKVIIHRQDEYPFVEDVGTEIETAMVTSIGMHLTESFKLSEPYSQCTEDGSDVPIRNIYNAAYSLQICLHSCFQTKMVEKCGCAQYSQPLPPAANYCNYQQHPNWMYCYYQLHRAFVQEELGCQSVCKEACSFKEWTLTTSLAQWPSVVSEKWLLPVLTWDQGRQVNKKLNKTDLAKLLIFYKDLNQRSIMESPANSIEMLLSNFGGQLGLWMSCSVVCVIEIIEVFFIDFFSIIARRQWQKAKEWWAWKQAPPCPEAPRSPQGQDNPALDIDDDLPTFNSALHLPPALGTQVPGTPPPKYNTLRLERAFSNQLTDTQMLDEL
Experiment: Transepithelial voltage under thin film conditions in human bronchial epithelial cultures (microelectrode)
Type: cell-based
From the text: Tissue procurement and cell culture: Cells were harvested by enzymatic digestion from human bronchial tissue as previously described under a protocol approved by the UNC School of Medicine IRB (Tarran et al., J. Gen. Physiol. 127:591 (2006)). Human excess donor lungs and excised recipient lungs were obtained at the time of lung transplantation from portions of main stem or […] bronchi and cells were harvested by enzymatic digestion. All preparations were maintained at an air-liquid interface in a modified bronchial epithelial medium and used 2-5 weeks after seeding on 12 mm T-Clear inserts (Corning Costar) coated with human placental type VI collagen (Sigma). Phosphate buffered saline (PBS) was used for washing human bronchial epithelial culture mucosal surfaces.
Microelectrode studies. A single-barreled potential difference-sensing electrode was placed in the airway surface liquid by micromanipulator and used in conjunction with a macroelectrode in the serosal solution to measure transepithelial voltage using a voltmeter (World Precision Instruments). […] Transepithelial resistance was routinely measured using the EVOM system (WPI) as previously described (Tarran et al., J. Gen. Physiol. 127:591 (2006)).

Molecule	transepithelial voltage after mucosal trypsin (SPLUNC1-exposed group, trypsin for 30 min after 1 h rSPLUNC1 exposure)	transepithelial voltage after mucosal trypsin (control cultures, trypsin for 30 min)	regulation of the transepithelial voltage (SPLUNC1 knockdown cultures, 50 ng/ml rSPLUNC1 added to airway surface liquid)	transepithelial voltage (cultures not pre-washed, airway surface liquid accumulated for 24 h)	onset of inhibition (human bronchial epithelial cultures, FIG. 2C, 2D) [min]	rate of inhibition of the transepithelial voltage (rSPLUNC1 vs aprotinin addition, effects not additive)	transepithelial voltage, addition to amiloride-treated cultures (same amiloride-treated cultures, n=12)	transepithelial voltage (washed cultures, 20 μl Ringer containing 50 ng/ml rSPLUNC1)
trypsin [reference compound]	significantly raised the transepithelial voltage	without effect						
SPLUNC1: human SPLUNC1, 256 amino acid secreted PLUNC protein (SEQ ID NO:1); rSPLUNC1 = V5/6His-tagged protein purified from HEK293 media (protein, listed as Homo sapiens, V5/6His tag, rSPLUNC1 = V5/6His-tagged protein purified from HEK293 media) MFQTGGLIVFYGLLAQTMAQFGGLPVPLDQTLPLNVNPALPLSPTGLAGSLTNALSNGLLSGGLLGILENLPLLDILKPGGGTSGGLLGGLLGKVTSVIPGLNNIIDIKVTDPQLLELGLVQSPDGHRLYVTIPLGIKLQVNTPLVGASLLRLAVKLDITAEILAVRDKQERIHLVLGDCTHSPGSLQISLLDGLGPLPIQGLLDSLTGILNKVLPELVQGNVCPLVNEVLRGLDITLVHDIVNMLIHGLQFVIKV			restored	without further effect	30 to 60	identical rates	without further effect	significantly reduced the transepithelial voltage
